Reference: patent publication US20170340734A1 (INSERM INSTITUT NATIONAL DE LA SANT ET DE LA RECHERCHE M …, published 2017)

Experiments:
murine AXL = molecular target: T1, murine AXL (murine, UniProt Q00993 19-443, limits assumed); test: not described (FIG. 6)
T1 construct: also called murine form of AXL
T1 sequence (looked up): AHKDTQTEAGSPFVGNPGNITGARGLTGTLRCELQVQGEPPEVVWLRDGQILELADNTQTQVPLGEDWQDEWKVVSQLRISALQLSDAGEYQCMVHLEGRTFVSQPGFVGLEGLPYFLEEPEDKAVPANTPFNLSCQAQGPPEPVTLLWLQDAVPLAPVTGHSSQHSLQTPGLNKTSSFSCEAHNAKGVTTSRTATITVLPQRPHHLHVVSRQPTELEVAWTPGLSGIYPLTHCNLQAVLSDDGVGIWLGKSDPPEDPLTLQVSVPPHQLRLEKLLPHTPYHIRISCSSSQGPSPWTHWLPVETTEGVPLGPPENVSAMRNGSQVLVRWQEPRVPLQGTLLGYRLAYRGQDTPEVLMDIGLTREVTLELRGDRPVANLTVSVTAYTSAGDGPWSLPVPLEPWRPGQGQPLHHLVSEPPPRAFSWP

human AXL = molecular target: T2, human AXL (human, UniProt P30530 26-449, limits assumed); test: not described (FIG. 6)
T2 construct: In the degradation, internalization and homodimerization experiments the receptor stood on the tumor cell surface; also called AXL receptor; human form of AXL
T2 sequence (looked up): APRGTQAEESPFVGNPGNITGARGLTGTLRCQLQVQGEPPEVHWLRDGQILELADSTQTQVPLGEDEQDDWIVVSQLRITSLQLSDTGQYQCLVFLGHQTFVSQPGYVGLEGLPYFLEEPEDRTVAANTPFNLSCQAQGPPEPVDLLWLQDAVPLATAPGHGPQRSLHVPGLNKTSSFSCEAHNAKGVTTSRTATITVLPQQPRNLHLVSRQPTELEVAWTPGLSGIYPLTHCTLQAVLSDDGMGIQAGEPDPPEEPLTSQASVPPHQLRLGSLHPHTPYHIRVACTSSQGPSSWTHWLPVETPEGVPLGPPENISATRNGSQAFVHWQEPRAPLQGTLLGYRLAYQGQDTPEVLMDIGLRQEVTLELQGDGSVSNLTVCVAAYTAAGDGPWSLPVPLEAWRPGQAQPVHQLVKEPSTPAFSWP

B1: human monoclonal antibody D4 (antibody, V domains shown)
VH: EVQLVESGGSLVKPGGSLRLSCAASGFTFSNYSMNWVRQAPGKGLEWISSISGSSRYIYYADFVKGRFTISRDNATNSLYLQMNSLRAEDTAVYYCVRGRKDSGTIYHWGRGTLVTVSS
VL: QSVLTQPASVSGSPGQSITISCAGTSSDVGGYNYVSWYQQHPGKAPKLMIYEDSKRPSGVSNRFSGSKSGNTASLTISGLQAEDEADYYCKKDDYSLRFTFGGGTKLAVLG
notes: also called D4 antibody; D4 human monoclonal antibody
Murine AXL
  binding result: binds
Human AXL
  binding result: binds
